# T1: phosphoribosylpyrophosphate synthetase (MsPrsA) (Mycolicibacterium smegmatis, UniProt A0R3C8)
# T1 construct: gene prs; recombinant MsPrsA, hexamer
# T1 sequence (A0R3C8 1-326): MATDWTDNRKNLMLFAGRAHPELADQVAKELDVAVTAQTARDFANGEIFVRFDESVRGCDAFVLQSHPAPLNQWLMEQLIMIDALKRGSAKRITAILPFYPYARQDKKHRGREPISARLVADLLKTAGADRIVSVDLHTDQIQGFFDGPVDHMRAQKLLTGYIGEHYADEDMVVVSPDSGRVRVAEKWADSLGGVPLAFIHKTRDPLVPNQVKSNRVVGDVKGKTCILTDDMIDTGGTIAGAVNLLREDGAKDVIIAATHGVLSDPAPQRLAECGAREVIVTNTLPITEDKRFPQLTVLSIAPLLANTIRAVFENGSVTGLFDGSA
# B1: Mycobacterium smegmatis phosphoribosylpyrophosphate synthetase (PrsA) (enzyme, M. smegmatis mc2155, UniProt A0R3C8 1-326, looked up)
# chain: T1 sequence (A0R3C8 1-326)
# notes: Phosphoribosylpyrophosphate synthetase (PrsA) of M. smegmatis mc2155; the crystal model holds Arg9-Gly316 without Arg204-Lys213; pCold I is recalled to add an N-terminal translation enhancing element, His6 and a Factor Xa site; also called MsPrsA; M. smegmatis PrsA
# Columns and labels:
# [1] = molecular target: T1, phosphoribosylpyrophosphate synthetase (MsPrsA); assay: OPRT-coupled spectrophotometric assay, dose response on purified enzyme; format: biochemical
# purified protein = substrate: Nc1ncnc2c1ncn2[C@@H]1O[C@H](COP(=O)(O)OP(=O)(O)OP(=O)(O)O)[C@@H](O)[C@H]1O; assay: purified protein; format: biochemical, Mycolicibacterium smegmatis; conditions: Mg2+, inorganic phosphate
# [2] = molecular target: the molecule itself; assay: SEC; analytical gel filtration on Sephacryl S200HR 16/60, MsPrsA 1 mg/ml in Tris-HCl 20mM pH 8.0, NaCl 50mM; column calibrated with Blue Dextrane, catalase, aldolase, albumin, ovoalbumin; elution volume consistent with about 221 KDa
Molecule,IC50 [1] [µM],K0.5 (purified protein) [mM],Vmax (purified protein) [µmol/min],kcat (purified protein) [s⁻¹],kcat/Km (purified protein) [M⁻¹ s⁻¹],stoichiometry N [2]
Nc1ncnc2c1ncn2[C@@H]1O[C@H](COP(=O)(O)OP(=O)(O)O)[C@@H](O)[C@H]1O [ADP],174 ± 46,,,,,
B1,,0.058 ± 0.005,0.006,83.5 ± 4.1,1.44e+06 ± 53800,6
